Target: IL-1Rrp1 and mouse ACPL polypeptide coexpressed in transfected cells (IL-18 receptor) (mouse)
Experiment: cell-based or functional assay

IL-1Rrp1 and mouse ACPL polypeptide coexpressed in transfected cells (IL-18 receptor) (mouse), sequence (Q9Z2B1 15-614): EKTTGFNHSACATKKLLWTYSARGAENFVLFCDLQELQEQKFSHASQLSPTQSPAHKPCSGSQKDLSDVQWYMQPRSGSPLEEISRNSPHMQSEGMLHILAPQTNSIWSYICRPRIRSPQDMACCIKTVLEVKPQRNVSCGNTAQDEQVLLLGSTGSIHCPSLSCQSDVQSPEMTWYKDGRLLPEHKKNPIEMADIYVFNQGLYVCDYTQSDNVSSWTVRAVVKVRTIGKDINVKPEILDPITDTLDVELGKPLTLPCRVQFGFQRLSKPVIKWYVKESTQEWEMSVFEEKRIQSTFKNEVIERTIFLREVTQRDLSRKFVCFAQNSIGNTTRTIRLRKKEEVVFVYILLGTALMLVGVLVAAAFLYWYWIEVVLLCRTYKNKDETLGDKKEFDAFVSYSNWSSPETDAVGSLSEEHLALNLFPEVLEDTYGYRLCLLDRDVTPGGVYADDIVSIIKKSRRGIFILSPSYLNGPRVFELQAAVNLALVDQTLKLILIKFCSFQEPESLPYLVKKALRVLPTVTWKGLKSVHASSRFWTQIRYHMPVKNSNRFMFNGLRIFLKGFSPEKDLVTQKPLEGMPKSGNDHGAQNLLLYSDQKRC

- induction of the NFkB-linked gene (NFkB-Luc luciferase reporter) in COS cells: 10 fold
- induction of the NFkB-linked gene (NFkB-Luc luciferase reporter) in S49 cells: 300 fold
Substance: murine IL-18 (PeproTech) (from UniProt P70380 36-192) (ligand)
